From patent US20130273058A1 come the findings set out here.

[ ]: non-standard residue; d: D form. The star is where a group is joined. Palmitoyl = CCCCCCCCCCCCCCCC(=O)*

The assay concerns the target GFP-tagged beta-catenin (UniProt P35222). Briefly: microscale thermophoresis (Monolith NT.115); lysate of HEK293 cells with GFP-beta-catenin mixed with increasing CT-HC-5 in the presence of bicelles; Hill fit.

Chain of GFP-tagged beta-catenin (P35222 whole entry): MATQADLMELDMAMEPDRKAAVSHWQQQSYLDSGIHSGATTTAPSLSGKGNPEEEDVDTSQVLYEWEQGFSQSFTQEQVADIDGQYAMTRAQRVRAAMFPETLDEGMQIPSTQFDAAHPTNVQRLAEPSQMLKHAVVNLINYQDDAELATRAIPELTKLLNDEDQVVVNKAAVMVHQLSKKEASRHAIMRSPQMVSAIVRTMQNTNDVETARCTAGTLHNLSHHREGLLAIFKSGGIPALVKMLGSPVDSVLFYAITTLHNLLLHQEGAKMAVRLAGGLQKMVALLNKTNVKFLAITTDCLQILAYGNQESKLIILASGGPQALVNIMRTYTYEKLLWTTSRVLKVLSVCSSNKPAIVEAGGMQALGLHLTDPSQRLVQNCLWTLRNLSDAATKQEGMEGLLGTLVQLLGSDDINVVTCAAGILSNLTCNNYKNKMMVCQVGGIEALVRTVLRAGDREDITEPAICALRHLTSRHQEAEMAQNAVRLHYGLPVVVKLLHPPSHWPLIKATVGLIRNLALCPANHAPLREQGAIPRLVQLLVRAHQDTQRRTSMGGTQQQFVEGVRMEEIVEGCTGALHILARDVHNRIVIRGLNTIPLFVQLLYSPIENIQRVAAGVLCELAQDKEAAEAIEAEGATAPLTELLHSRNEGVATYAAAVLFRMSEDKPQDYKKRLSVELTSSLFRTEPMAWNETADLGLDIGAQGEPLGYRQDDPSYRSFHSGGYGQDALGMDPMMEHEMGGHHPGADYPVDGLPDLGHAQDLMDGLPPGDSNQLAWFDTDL

B1: CT-HC-5 (peptide)
peptide: Palmitoyl-[dT][dR][dF][dL][dS][dS][dT][dL][dE][dV][dS][dL][dR][dK][dK]-NH2
SMILES: CCCCCCCCCCCCCCCC(=O)N[C@@H](C(=O)N[C@H](CCCNC(=N)N)C(=O)N[C@H](Cc1ccccc1)C(=O)N[C@H](CC(C)C)C(=O)N[C@H](CO)C(=O)N[C@H](CO)C(=O)N[C@@H](C(=O)N[C@H](CC(C)C)C(=O)N[C@H](CCC(=O)O)C(=O)N[C@@H](C(=O)N[C@H](CO)C(=O)N[C@H](CC(C)C)C(=O)N[C@H](CCCNC(=N)N)C(=O)N[C@H](CCCCN)C(=O)N[C@H](CCCCN)C(N)=O)C(C)C)[C@H](C)O)[C@H](C)O
Turning to B1, the Kd was 2.7 µM.
